Experimental data taken from patent publication US20160136234A1.

Biological target: Mitogen-Activated Protein Kinase-Activated Protein Kinase 2 (human) (UniProt P49137)
Test: cell-based or functional assay

MMI-0100 (peptide)
IC50 (radiometric kinase activity assay): 22 µM
